The experiment has as its target Amyloid-β peptide Aβ(1-42). Briefly: NMR titration; 5 μM soluble pEAβ(3-42), 5% Aβ(1-42) fibrils added directly; decrease of the NMR signal of soluble pEAβ(3-42) within ca. 10 min; 10 mM sodium phosphate pH 7.4, 37 °C.

As for “Pyroglutamate-modified amyloid-β pEAβ(3-42) (peptide)”, the decrease in NMR signal intensity of soluble pEAβ(3-42) amounted to 50% and the stoichiometry N (pEAβ(3-42) : Aβ(1-42) in fibrils) was determined as 10.

The values are drawn from PMC5612032.
